Laboratory results as given in patent publication US20180203016A1 (UCB, published 2018).

Experiments:
[1] = molecular target: TNFα (fused trimer) - AVI Tag, biotinylated, in the presence of compound (3); experiment: TR-FRET, 7.5 nM proteins, compound (3) up to 25 µM; partial loss of receptor binding
[2] = molecular target: TNFα (fused trimer) - AVI Tag, biotinylated, in the presence of compound (4); experiment: TR-FRET, 7.5 nM proteins, compound (4) up to 25 µM; partial loss of receptor binding
[3] = molecular target: T1, soluble form of mouse TNFα (VC 6535) in complex with compound (1) (mouse, UniProt P06804 89-235); experiment: X-ray crystallography, 3.15 Å
T1 construct: also called murine TNFα; trimer-compound complex
T1 sequence: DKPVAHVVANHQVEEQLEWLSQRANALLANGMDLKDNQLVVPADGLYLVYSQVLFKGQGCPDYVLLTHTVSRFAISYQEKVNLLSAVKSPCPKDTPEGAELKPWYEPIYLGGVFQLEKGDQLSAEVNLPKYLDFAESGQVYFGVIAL
Protocol: The final purified ternary complex was concentrated to 18.5 mg/ml and immediately used in crystallization trials.
The ternary complex was crystallized by sitting drop vapor diffusion by mixing 0.5 μl of complex with 0.5 μl of 800 mM sodium potassium tartrate, 0.5% PEG5000 MME, 100 mM Tris pH 8.5 over 100 μl of the same crystallization solution. Crystals were harvested for data collection approximately 2 months after initial set up. They were briefly soaked in paraffin oil and frozen directly in liquid nitrogen for data collection on Aug. 17, 2012 at Argonne Photon Source, beamline 21-IDF.

[4] = molecular target: T2, fused human TNFα trimer in complex with compound (2) (human, UniProt P01375 77-233; P01375 86-233; P01375 86-233, limits assumed); experiment: analytical SEC (HPLC, TSK G3000SW), Abs 280 nm against retention time; 3.2 fold excess of TNFR1 over fused TNFα trimer preincubated with 90, 240, 465 or 690 µM compound (2) [D00007 Fig. 5(Cont.]
T2 construct: also called trimer-compound complex; compound-trimer complex
T2 sequence (P01375 other isoform, or with tags, fused parts or gaps limits assumed): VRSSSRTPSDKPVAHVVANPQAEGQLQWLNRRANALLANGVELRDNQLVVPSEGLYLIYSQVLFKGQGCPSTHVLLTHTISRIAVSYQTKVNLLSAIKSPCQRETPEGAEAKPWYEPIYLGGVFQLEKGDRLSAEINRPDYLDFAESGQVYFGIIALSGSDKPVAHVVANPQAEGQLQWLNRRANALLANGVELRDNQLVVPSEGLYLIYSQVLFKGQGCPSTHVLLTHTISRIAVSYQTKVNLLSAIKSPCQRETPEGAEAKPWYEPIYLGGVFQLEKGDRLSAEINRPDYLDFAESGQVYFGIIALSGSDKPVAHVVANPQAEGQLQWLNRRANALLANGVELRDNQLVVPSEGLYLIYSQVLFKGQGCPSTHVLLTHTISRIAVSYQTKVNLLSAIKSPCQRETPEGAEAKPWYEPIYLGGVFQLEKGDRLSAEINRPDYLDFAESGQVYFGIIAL
Protocol: The final concentration of DMSO was 0.25%. The mixture was incubated for 1 hour at 22° C.

[5] = molecular target: T3, fused human TNFα trimer in complex with compound (5) (human, UniProt P01375 77-233; P01375 86-233; P01375 86-233, limits assumed); experiment: analytical SEC (Superdex 200HR 10/300), Abs 280 nm against retention (CV); 3.5 fold excess of TNFR1 over trimer preincubated with 200 µM compound (5)
T3 construct: also called trimer-compound complex
T3 sequence (P01375 other isoform, or with tags, fused parts or gaps limits assumed): as above
Protocol: The final concentration of DMSO was 1.0%. The mixture was incubated for 1 hour at 22° C.

Molecule: TNFR1(ECD)-6xLysine-Human single chain Fc, Alexa Fluor 488 conjugated (from UniProt P19438 30-211) (Fc fusion)
- maximal inhibition of FRET signal [1]: 29%
- maximal inhibition of FRET signal [2]: 36%

B1: extracellular domain of human TNFR1 (VC 5602) (receptor)
chain: GSVCPQGKYIHPQDNSICCTKCHKGTYLYNDCPGPGQDTDCRECESGSFTASENHLRHCLSCSKCRKEMGQVEISSCTVDRDTVCGCRKNQYRHYWSENLFQCFNCSLCLNGTVHLSCQEKQNTVCTCHAGFFLRENECVSSSN
notes: Expressed in baculovirus infected insect cells
- binding result [3]: binds

B2: Human TNFR1 (V43-N184)(N54D, C182S) (receptor, UniProt P19438 43-184, looked up)
chain: VCPQGKYIHPQDNSICCTKCHKGTYLYNDCPGPGQDTDCRECESGSFTASENHLRHCLSCSKCRKEMGQVEISSCTVDRDTVCGCRKNQYRHYWSENLFQCFNCSLCLNGTVHLSCQEKQNTVCTCHAGFFLRENECVSSSN
notes: also called receptor
- binding result [4]: binds
- binding result [5]: binds
